Results on three molecules are retold here after article doi:10.1101/2023.03.28.534355 (bioRxiv, 2023).

For series [1], the target named is GBP1 D308S/L309A/P310A (human) (UniProt P32455). The experiment in a line: mass photometry.
The target of series [2] is human Guanylate-Binding Protein 1 (GBP1), full-length, non-farnesylated (human) (UniProt P32455). Kind of series: mass photometry.
For series [3] the target is unchanged. Kind of series: SEC-MALS. In general terms: SEC sorts molecules by how far they enter the pores of the column.
Series [4] deals with the molecule itself. The experiment in a line: mass photometry.

With “GBP1 D308S/L309A/P310A (from UniProt P32455 1-592) (enzyme)”, the stoichiometry N (usually the number of molecules, sites or subunits per partner or assembly) in series [1] worked out at 2.

As for “human Guanylate-Binding Protein 1 (GBP1), full-length, non-farnesylated (from UniProt P32455 1-592) (enzyme)”, the stoichiometry N in series [2] and in series [3] was 2 each time.

B1: GBP1 D308S (enzyme)
chain: MASEIHMTGPMCLIENTNGRLMANPEALKILSAITQPMVVVAIVGLYRTGKSYLMNKLAGKKKGFSLGSTVQSHTKGIWMWCVPHPKKPGHILVLLDTEGLGDVEKGDNQNDSWIFALAVLLSSTFVYNSIGTINQQAMDQLYYVTELTHRIRSKSSPDENENEVEDSADFVSFFPDFVWTLRDFSLDLEADGQPLTPDEYLTYSLKLKKGTSQKDETFNLPRLCIRKFFPKKKCFVFDRPVHRRKLAQLEKLQDEELDPEFVQQVADFCSYIFSNSKTKTLSGGIQVNGPRLESLVLTYVNAISSGSLPCMENAVLALAQIENSAAVQKAIAHYEQQMGQKVQLPTETLQELLDLHRDSEREAIEVFIRSSFKDVDHLFQKELAAQLEKKRDDFCKQNQEASSDRCSALLQVIFSPLEEEVKAGIYSKPGGYRLFVQKLQDLKKKYYEEPRKGIQAEEILQTYLKSKESMTDAILQTDQTLTEKEKEIEVERVKAESAQASAKMLQEMQRKNEQMMEQKERSYQEHLKQLTEKMENDRVQLLKEQERTLALKLQEQEQLLKEGFQKESRIMKNEIQDLQTKMRRRKACTIS
Take B1: the “stoichiometry N” value in series [4] was found to be 2.
